Data as given in publication PMC9665845.

Target: human Kap-β2/Transportin-1 (TNPO1), GST tag removed (human) (UniProt Q92973)
Sequence of UniProt Q92973 (Q92973 whole entry): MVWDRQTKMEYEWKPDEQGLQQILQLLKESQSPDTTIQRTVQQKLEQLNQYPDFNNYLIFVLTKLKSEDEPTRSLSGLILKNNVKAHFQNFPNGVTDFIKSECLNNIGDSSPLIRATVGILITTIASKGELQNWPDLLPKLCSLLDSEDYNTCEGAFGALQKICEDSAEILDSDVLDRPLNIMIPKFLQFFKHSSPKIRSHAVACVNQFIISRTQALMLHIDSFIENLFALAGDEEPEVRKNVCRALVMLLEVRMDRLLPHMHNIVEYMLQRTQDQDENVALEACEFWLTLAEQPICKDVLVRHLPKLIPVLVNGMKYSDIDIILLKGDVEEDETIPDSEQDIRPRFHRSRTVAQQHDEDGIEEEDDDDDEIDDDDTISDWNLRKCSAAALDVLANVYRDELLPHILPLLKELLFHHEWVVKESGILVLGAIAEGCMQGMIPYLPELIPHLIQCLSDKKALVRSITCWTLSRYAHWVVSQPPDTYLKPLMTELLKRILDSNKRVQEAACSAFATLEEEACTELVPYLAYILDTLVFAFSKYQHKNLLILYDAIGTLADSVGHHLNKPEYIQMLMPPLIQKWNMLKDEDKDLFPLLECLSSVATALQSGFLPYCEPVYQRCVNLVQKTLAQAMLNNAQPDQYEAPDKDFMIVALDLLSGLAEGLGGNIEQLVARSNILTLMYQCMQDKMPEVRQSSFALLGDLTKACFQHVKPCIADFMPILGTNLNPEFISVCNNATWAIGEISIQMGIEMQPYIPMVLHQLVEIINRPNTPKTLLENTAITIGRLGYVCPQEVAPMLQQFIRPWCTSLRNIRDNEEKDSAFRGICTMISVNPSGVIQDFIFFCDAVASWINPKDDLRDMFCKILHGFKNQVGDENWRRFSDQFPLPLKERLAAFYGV

| percent reduction of TCF/LEF luciferase activity in 3T3 mouse fibroblast reporter cells activated by human β-catenin-GFP | percent reduction of TCF/LEF luciferase activity in 3T3 mouse fibroblast reporter cells activated by human β-catenin-GFP; blocks TNPO1 with β-catenin | Binder |
| --- | --- | --- |
| 24% | – | GGSYNDFGNYNNQSSNAAAAKGGNFGGAFEAAANPTKR [M9M-A peptide] |
| – | 45% | GGSYNDFGNYNNQSSNFGPMKGGNFGGRFEPYANPTKR [M9M peptide] |
